Patent US12012457 (SYNTHEKINE, dated 2024)

T1: extracellular domain of mouse IL23R (mIL23R ECD) (mouse, UniProt Q8K4B4 24-374)
T1 construct: also called mIL-23 ECD antigen
T1 sequence: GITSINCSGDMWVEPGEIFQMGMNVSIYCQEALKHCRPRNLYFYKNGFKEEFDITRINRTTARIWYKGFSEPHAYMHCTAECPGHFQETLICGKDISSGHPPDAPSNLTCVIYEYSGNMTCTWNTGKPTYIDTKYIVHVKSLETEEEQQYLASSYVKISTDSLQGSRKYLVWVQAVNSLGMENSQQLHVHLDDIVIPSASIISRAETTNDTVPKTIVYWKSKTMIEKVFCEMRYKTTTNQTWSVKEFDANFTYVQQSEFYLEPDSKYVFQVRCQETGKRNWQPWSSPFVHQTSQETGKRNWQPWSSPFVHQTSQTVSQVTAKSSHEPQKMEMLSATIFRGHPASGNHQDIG

B1: mIL23R VHH3 (VHH)
VHH: QVQLQESGGGSVQAGGSLRLSCTASVNTYCEYNMSWYRQAPGKEREFVSGVDSDGSTRYSESVKGRFTISQDNAKNTMYLQMNGLKPEDTAMYYCKTYVCTFCSGNSCYYEYKYYYEGQGTQVTVSS
B2: mIL23R VHH40 (VHH)
VHH: QVQLQESGGGLVQPGGSLRLSCAASGFTFRLTAMRWVRQAPGKGLEWVSGIDSRGSTIYADSVKGRFTISKDNAKNTLYLQLNSLKSEDTAMYYCAQGVYGDTYSGSQGTQVTVSS
B3: mIL23R VHH45 (VHH)
VHH: QVQLQESGGGLVQPGGSLRLSCAASGFTFRLSAMRWVRQAPGKGLEWVSGIDSRGSTIYADSVEGRFTISKDNAKNTLYLQLNSLKTEDTAMYYCAQGVYGDTYSGSQGTQVTVSS
B4: mIL23R VHH44 (VHH)
VHH: QVQLQESGGGLVQPGGSLRLSCAASGFTFRLSAMRWVRQAPGKGFEWVSGIDSRGSTIYADSVKGRFTISKDNAKNTLYLQLNSLKTEDTAMYYCAQGVYGDTYSGSQGTQVTVSS
B5: mIL23R VHH42 (VHH)
VHH: QVQLQESGGGLVQPGGSLRLSCAASGFTFSNYAMRWVRQAPGKGLEWVSGIDSRGSTIYADSVKGRFTISKDNAKNTLYLQLNSLKTEDTAMYYCAQGVYGDTYSGSQGTQVTVSS
B6: mIL23R VHH46 (VHH)
VHH: QVQLQESGGGLVQPGGSLRLSCAASGFTFRLSAMRWVRQAPGKGLEWVSGIDSRGSTIYADSVKGRFTISKDDAKNTLYLQLNSLKTEDTAMYYCAQGVYGDTYSGSQGTQVTVSS
B7: mIL23R VHH26 (VHH)
VHH: QVQLQESGGGSVQAGGSLRLSCAASGYTFCMAWFRQAPGKEREGVARFYTRDGYTYYSDSVKGRFTISQNNAKNTLYLQMNSLKSEDTAMYYCAADLTRCSSNKNDFRYWGQGTQVTVSS
B8: mIL23R VHH43 (VHH)
VHH: QVQLQESGGGSVQAGGSLRLSCAASGYTFCMAWFRQAPGKEREGVARFYTRDGYTYYSDSVKGRFTISQDNAKNTLYLQMNSLKSEDTAMYYCAADLTRCSSNKNDFRYWGQGTQVTVSS
B9: mIL23R VHH24 (VHH)
VHH: QVQLQESGGGSVQAGGSLRLSCAVSGYTFCMAWFRQAPGKEREGVARFYTRDGYTYYSGSVKGRFTISQNNAKNTLYLQMNSLKSEDTAMYYCAADLTRCSSNKNDFRYWGQGTQVTVSS
B10: mIL23R VHH5 (VHH)
VHH: QVQLQESGGGSVQAGGSLRLSCAASGYTFCMAWFRQAPGKEREGVARFYTRDGYTYYSDSVKGRFTISQNNAKNTLYLQMNSLKSEDTAMYYCAADLARCSSNKNDFRYWGQGTQVTVSS
B11: mIL23R VHH22 (VHH)
VHH: QVQLQESGGGSVQAGGSLRLSCAASGYTFCMAWFRQAPGKEREGVARFYTRDSYTYYSDSVKGRFTISQNNAKNTLYLQMNSLKSEDTAMYYCAADLTRCSSNKNDFRYWGQGTQVTVSS
B12: mIL23R VHH6 (VHH)
VHH: QVQLQESGGGSVQAGGSLRLSCAASGYTSGNYWMGWFRQAPGKEREGVATLWTGGASTFYGDSVKGRFTISRDNFKNTLYLQMNSLKVEDTAMYYCAADPALRLGANILRPAEYKYWGQGTQVTVSS
B13: mIL23R VHH4 (VHH)
VHH: QVQLQESGGGSVQAGGSLRLSCAASGYTYSNNCMGWFRQAPGKDRERIANIYTGGGRTTYADSVKGRFTISQDSAKSTVYLQMNSLKPEDTAMYYCAAGSCGSARSEYSYWGQGTQVTVSS

Molecular target: T1, extracellular domain of mouse IL23R …
Test: periplasmic extract ELISA (PE-ELISA), 96-well plate, colorimetric

Binding result, binds:
B1, B2, B3, B4, B5, B6, B7, B8, B9, B10, B11, B12, B13
